Residue numbers refer to the chain shown, from its start.
B1: 6.18 (antibody, V domains shown)
VH: EVQLVQSGAEVKKPGESLRISCKGSGYSVTSYWIGWVRQMPGKGLEWMGIIYPGDSDTRYSPSFQGQVTISADKSISTAYLQWSSLKASDTAMYYCARLQGDCSGGTCYGHFDYWGQGTLVTVS
VL: EIVLTQSPGTLSLSPGERATLSCRASQSVSSSYLAWYQQKPAQAPRLLIYVASRRATGIPDRFSGSGSGTDFTLTISRLEPEDFAVYYCQQYGTSSWTFGQGTTVEIK
B2: 2.7 (antibody, V domains shown)
VH: EVQLVESGGGLVKPGGSLRLSCAASGFTFSNAWMSWVRQAPGKGLEWVGRIKRKTDGETTDYAAPVKGRFTISRDDSRNTLYLQMNSLKTEDTAVYYCTIYTYYYGMDVWGQGTTVTVSS
VL: DIQMTQSPSSLSASVGDRVTITCRASQSINNYLNWYQQKPGKAPKLLIYAASSLESGVPSRFSGSGSGTDFTLTISSLQPEDFATYYCQQSYSTPPTFGQGTKVEIK
B3: 2.11 (antibody, V domains shown)
VH: QVQLQESGPGLVKPSQTLSLTCTVSGGSINSGGYYWSWIRQHPGKGLEWIGYIFYSGSTYYNPSLKSRVNISVDTSKNQFSLKMSSVTAADTAVYYCARDQDGFDYWGQGTLVTVSS
VL: DIVMTQTPLSLPVTPGEPASISCRSSQSLLDSDDGNTYLDWYLQKPGQSPQLLIYTLSYRASGVPDRFSGSGSGTDFTLKISRVEAEDVGVYYCMQRIEFPWTFGQGTKVEIK
B4: 6.17 (antibody, V domains shown)
VH: B1 VH with T30S, Y80F, S84I, T107S
VL: B1 VL with S28T, V29I, S32G, T94S
B5: 6.3 (antibody, V domains shown)
VH: QVLLQESGPGLVKPSQTLSLTCTVSGGSISSGGYYWSWIRQHPGKGLEWIGYINYSGSAYYNPSLKSRVTISVDTSKNQFSLKLSSVTAADTAVYYCARDHWLLRGFDYWGQGTLVTVSS
VL: DIVMTQTPLSLSVTPGQPASISCKSSQSLLHSDGKTYLYWYLQKPGQPPQLLIYEVSNRFSGVPDRFSGSGSGTDFTLKISRVEAEDVGVYYCMQSIQLPRTFGQGTKVEIK
B6: 2.19 (antibody, V domains shown)
VH: QVQLQESGPGLVKPSETLSLTCTVSGDSISSYYWSWIRQPPGKGLEWIGYVYYSGSTNYNPSLKSRVTMSVDTSKNQFSLKLSSVTAADTAVYYCARDLELYAFDIWGQGTMVTVSS
VL: EIVLTQFPGTLSLSPGERVTLSCRASQSVSSTYVVWYQQKPGQAPRLLIYGASSRATGIPDRFSGSGSGTDFTLTISRLEPEDFAVYYCQQHGSSPWTFGQGTKVEIK
B7: 10.1 (antibody, V domains shown)
VH: QVQLQQSGPGLVKPSETLSLTCTVSGASISSYYWSWIRQPAGKGLEWIGRIYASGSTNYNPSLKSRVTMSVDTSKSQFSLNLSSVTAADTAVYYCAREGWERLQDYYYYGLDVWGQGTTVTVSS
VL: B6 VL with F7S, V19A, S31R, T32N, V34L, V35A, Y37N, H92Y, W97L, Q101G
B8: 2.1 (antibody, V domains shown)
VH: QVQLQESGPGLVKPSQTLSLTCTVSGGSISSGGYYWSWIRQHPGKGLEWIGYIYNSGSTYYNPSLKSRGTISADTSKNQFSLKLSSVTAADTAVYYCARGSSSYYWYFDLWGRGTLVTVSS
VL: DIQMTQSPSSMSASVGDRVTITCRASQRISSNLNWYQQKPGKAPKFLIYGASSLQSGVPSRFSGSGSGTDFTLTISSLRPEDFATYYCQQSYSTPYTFGPGTKVDIK
B9: 2.25 (antibody, V domains shown)
VH: QVQLQQSGPGLVKPSQTLSLTCAISGDSVSSNSAAWNWIRQSPSRGLEWLGRTYYMSKWYNDYAVSVKSRITINPDTSKNQFSLQLNSVTPEDTAVYYCARARYCGGDCYDFDYWGQGTLVTVSS
VL: B2 VL with Q6H, N30S, N31I, Y32S, K42N, E55Q, V58I, Y92F, P96W
B10: 6.48 (antibody, V domains shown)
VH: B1 VH with T30S, Y80F, S84I, T107S, Y114C
VL: DVVLTQSPLSLPVTLGQPASISCRSSQSLVNSDGDTYLSWFQQWPGQSPRRLFYEVSNWDSGVPDRFSGSGSGTDFTLKISRVEAEDVGVYYCMQGTHWLTFGGGTKVEIK
B11: 3.2 (antibody, V domains shown)
VH: QVQLVESGGGVVQPGRSLRLSCAASGFTFSSYGIHWVRQAPGKGLEWVAVIWYDGSDIYYADSVKGRFTISRDNSKNTLYLQMNSLRAEDTALYYCARESSGWTFDYWGQGTLVTVSS
VL: QSALTQPASVSGSPGQSITISCTGTSSDVGGYNYVSWYQQHPGKAPKLMIYEVSNRPSGISNRFSGSKSGNTASLTISGLQAEDEADYYCSSYTSSSTIIFGGGTKLTVL

Substrate: I domain-GST, recombinant GST fusion protein containing amino acids 127-340 of the human VLA-1 α1 subunit (human) (UniProt P56199)
Experiment: SPR, mAb captured on anti-human IgG, I domain-GST in solution, no Mg2+, titration screen (*)

Sequence of I domain-GST, recombinant GST fusion protein containing amino acids 127-340 of the human VLA-1 α1 subunit (human) (P56199 151-364 limits assumed, form in doubt): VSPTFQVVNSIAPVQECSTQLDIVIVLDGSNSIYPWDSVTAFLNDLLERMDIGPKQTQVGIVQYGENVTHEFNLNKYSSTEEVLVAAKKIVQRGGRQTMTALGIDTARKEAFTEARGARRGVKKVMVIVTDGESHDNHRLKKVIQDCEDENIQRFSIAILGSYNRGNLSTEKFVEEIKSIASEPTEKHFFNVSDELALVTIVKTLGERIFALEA

Row | Kd | koff | kon | Binder
1 | 0.574 nM | 7.08e-05 s⁻¹ | 123000 M⁻¹ s⁻¹ | B1
2 | – | 8.22e-05 s⁻¹ | 134000 M⁻¹ s⁻¹ | B2

Substrate: I domain-GST, recombinant GST fusion protein containing amino acids 127-340 of the human VLA-1 α1 subunit (human) (UniProt P56199)
Experiment: SPR, mAb captured on anti-human IgG, I domain-GST in solution, no Mg2+

Row | Kd | koff | kon | Binder
3 | 0.889 nM | 0.000208 s⁻¹ | 234000 M⁻¹ s⁻¹ | B3
4 | 1.63 nM | 0.000154 s⁻¹ | 94600 M⁻¹ s⁻¹ | B4
5 | 1.69 nM | 0.000243 s⁻¹ | 144000 M⁻¹ s⁻¹ | B5
6 | 0.478 nM | 5.93e-05 s⁻¹ | 124000 M⁻¹ s⁻¹ | B6
7 | 1.04 nM | 0.000173 s⁻¹ | 166000 M⁻¹ s⁻¹ | B7
8 | 4.62 nM | 0.00211 s⁻¹ | 456000 M⁻¹ s⁻¹ | B8
9 | 1.46 nM | 0.000111 s⁻¹ | 75800 M⁻¹ s⁻¹ | B9

Substrate: I domain-GST, recombinant GST fusion protein containing amino acids 127-340 of the human VLA-1 α1 subunit (human) (UniProt P56199)
Experiment: SPR, mAb captured on anti-human IgG, I domain-GST in solution, 1 mM Mg2+, titration screen (*)

Row | Kd | koff | kon | Binder
10 | 0.025 nM | 8e-06 s⁻¹ | 318000 M⁻¹ s⁻¹ | B3
11 | 0.255 nM | 0.000136 s⁻¹ | 533000 M⁻¹ s⁻¹ | B4
12 | 0.216 nM | 0.000121 s⁻¹ | 561000 M⁻¹ s⁻¹ | B10
13 | 0.138 nM | 7.2e-05 s⁻¹ | 523000 M⁻¹ s⁻¹ | B1
14 | 0.068 nM | 3.1e-05 s⁻¹ | 453000 M⁻¹ s⁻¹ | B7
15 | 0.117 nM | 3.77e-05 s⁻¹ | 321000 M⁻¹ s⁻¹ | B2

Substrate: I domain-GST, recombinant GST fusion protein containing amino acids 127-340 of the human VLA-1 α1 subunit (human) (UniProt P56199)
Experiment: competition: I domain-GST binding to immobilized collagen IV, anti-GST-HRP

Row | IC50 | Binder
16 | 3.2 nM | B11
17 | 12 nM | B4
18 | 9.8 nM | B10
19 | 7.6 nM | B1
20 | 7.4 nM | B6
21 | 5.5 nM | B7
22 | 6.4 nM | B2

Molecular target: biotinylated I domain-GST (human) (UniProt P56199)
Experiment: competition: I domain-btn binding to immobilized collagen IV, streptavidin-HRP

Row | IC50 | Binder
23 | 1.6 nM | B11
24 | 7.6 nM | B4
25 | 6.1 nM | B10
26 | 3.3 nM | B1
27 | 3 nM | B6
28 | 3.1 nM | B7
29 | 2.4 nM | B2

Substrate: I domain-GST, recombinant GST fusion protein containing amino acids 127-340 of the human VLA-1 α1 subunit (human) (UniProt P56199)
Experiment: SPR, mAb captured on anti-human IgG, I domain-GST in solution, 1 mM Mg2+

Row | Kd | koff | kon | Binder
30 | 0.04 nM | 1.43e-05 s⁻¹ | 354000 M⁻¹ s⁻¹ | B11
31 | 0.243 nM | 0.000131 s⁻¹ | 538000 M⁻¹ s⁻¹ | B6
32 | 1.57 nM | 1.3e-05 s⁻¹ | 8300 M⁻¹ s⁻¹ | B9

— patent US20060286112A1
